In PMC7458460:

Target: CN391 (CNA_(1–391)/CNB_(1–170)) (UniProt Q08209)
Experiment: ITC

CN391 (CNA_(1–391)/CNB_(1–170)), sequence (Q08209 1-391, chain 1 of 2): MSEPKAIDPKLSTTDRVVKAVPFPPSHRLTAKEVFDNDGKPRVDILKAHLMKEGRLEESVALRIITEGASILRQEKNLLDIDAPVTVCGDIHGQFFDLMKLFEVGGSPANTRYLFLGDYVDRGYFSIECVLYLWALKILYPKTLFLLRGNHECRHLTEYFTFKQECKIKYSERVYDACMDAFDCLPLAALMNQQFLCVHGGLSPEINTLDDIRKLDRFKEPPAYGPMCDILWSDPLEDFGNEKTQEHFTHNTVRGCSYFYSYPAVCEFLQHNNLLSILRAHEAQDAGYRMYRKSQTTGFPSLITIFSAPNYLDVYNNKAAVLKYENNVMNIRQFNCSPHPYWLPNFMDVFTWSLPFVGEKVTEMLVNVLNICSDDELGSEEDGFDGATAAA
CN391 (CNA_(1–391)/CNB_(1–170)), sequence (P63098 whole entry, chain 2 of 2, further chain): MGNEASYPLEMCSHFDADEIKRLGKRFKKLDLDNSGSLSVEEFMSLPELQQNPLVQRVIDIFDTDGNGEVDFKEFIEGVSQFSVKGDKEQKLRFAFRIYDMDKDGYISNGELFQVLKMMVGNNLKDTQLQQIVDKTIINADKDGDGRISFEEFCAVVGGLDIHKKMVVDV
RCAN1_(core) WT (residues 128 to 164), sequence (P53805 183-219): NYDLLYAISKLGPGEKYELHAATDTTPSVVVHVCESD

Kd: 161 nM
dH: -18.8 kcal/mol
Substance: RCAN1_(core) WT (residues 128 to 164) (from UniProt P53805-2 128-164) (domain or fragment)
